Source: article PMC4618557

Target: Vasna-Cd4d3+4-bio (zebrafish)
Assay: SPR; BIAcore; Vasna-Cd4d3+4-bio immobilised on a streptavidin-coated sensor chip at high and low levels, Cd4d3+4-bio as reference; Islr2-Cd4d3+4-6xHis injected in serial dilutions; HBS-EP buffer, 28 °C; 20 μl/min for equilibrium, 100 μl/min for kinetics (7, 14, 28 μM); purification of the Vasna bait before capture not given

“Islr2-Cd4d3+4-6xHis (domain or fragment)” was tested, and the Kd was 12.4 µM, the half-life was 0.16 s and the koff was 4.3 s⁻¹.
